Source: patent US20050053923A1

Tests used:
[1] = target: Semi-purified recombinant West Nile virus NS1 with 8-His tag (West Nile virus) (UniProt Q9Q6P4); assay: sandwich ELISA: coated mAb 3.1112G captures rNS1, rabbit anti-WNV-NS1 polyclonal detection
[2] = target: recombinant NS1 (rNS1), construct not stated; assay: as above

UniProt Q9Q6P4, sequence (Q9Q6P4 799-1144, tags or fused parts left off): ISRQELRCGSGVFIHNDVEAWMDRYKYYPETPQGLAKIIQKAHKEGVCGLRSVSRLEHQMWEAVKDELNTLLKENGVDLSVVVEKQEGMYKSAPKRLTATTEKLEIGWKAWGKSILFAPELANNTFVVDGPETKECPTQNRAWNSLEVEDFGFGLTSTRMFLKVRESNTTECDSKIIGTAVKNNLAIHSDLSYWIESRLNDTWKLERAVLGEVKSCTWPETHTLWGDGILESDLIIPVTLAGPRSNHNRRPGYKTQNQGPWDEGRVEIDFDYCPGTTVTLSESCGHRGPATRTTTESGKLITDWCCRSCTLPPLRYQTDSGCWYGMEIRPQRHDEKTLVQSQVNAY

What does the source list for “monoclonal antibody against Kunjin NS1 (3.1112G, Chemicon International)”?
O.D. [1]: 0.887 O.D. 450 nm; O.D. [2]: 0.577 O.D. 450 nm
